Here are results for 167 variants from the RNAGym collection of RNA variant scans (doi:10.7554/elife.80360).

B1: Hairpin Ribozyme (parent)
chain: GUCCUCUUUCACGUGCGCGUGAAAGAGAGAAGUGAACCAGAGAAACACACGUUGUGGUAUAUUACCUGGUA

Variants of B1 are the subject of the series. The experiment in a line: self-cleavage, relative activity (ratio to wild type); higher = more cleavage; co-transcriptional.
In the case of A23U G51U, the self-cleavage was found to be 0.893.

On to G25A A64U, for which the self-cleavage turned out to be 0.173.

Regarding G25A A64C, the self-cleavage came out at 0.23.

In the case of G25A A47C, the self-cleavage turned out to be 0.107.

On to A22U U53A, for which the self-cleavage turned out to be 0.859.

Take A22U U53C: the self-cleavage is 0.897.

In the case of A24G A31U, the self-cleavage is 0.111.

For A24G A31C, the self-cleavage was found to be 0.041.

Turning to A23G G32A, the self-cleavage was 0.0936.

Consider A23C A24U, for which the self-cleavage stood at 0.626.

As for A24C A59G, the self-cleavage came to 0.0535.

As to A23U G56C, the self-cleavage came out at 0.174.

As for A24U G40C, the self-cleavage was 0.116.

Consider A23G G27A, for which the self-cleavage was found to be 0.496.

With A23C A44C, the self-cleavage amounted to 0.251.

In the case of A22U G68C, the self-cleavage was determined as 0.252.

With A24C A71C, the self-cleavage was determined as 1.33.

For A23U A59G, the self-cleavage was found to be 0.183.

For A24C A49C, the self-cleavage came to 0.308.

Take A23G G57C: the self-cleavage came out at 0.177.

Consider A23G G57A, for which the self-cleavage stood at 0.19.

A24G A45C: the self-cleavage was found to be 0.235.

Consider A24G A45U, for which the self-cleavage came out at 0.145.

With A23C G29A, the self-cleavage came to 0.177.

On to A23C G29U, for which the self-cleavage amounted to 0.0906.

As to A24U C50G, the self-cleavage worked out at 0.341.

A24C C48A: the self-cleavage turned out to be 0.172.

G25A C66U: the self-cleavage was 0.239.

On to A23U G25C, for which the self-cleavage was found to be 0.132.

Turning to A23U G25A, the self-cleavage worked out at 0.186.

Turning to A23U G25U, the self-cleavage is 0.216.

With G25A A36U, the self-cleavage came out at 0.363.

Take G25A A30G: the self-cleavage worked out at 0.188.

As to G25A A30U, the self-cleavage is 0.234.

Consider A23C A61G, for which the self-cleavage amounted to 0.161.

For A23C A61U, the self-cleavage was found to be 0.204.

With A24U C38A, the self-cleavage amounted to 0.154.

Take A24G A44U: the self-cleavage turned out to be 0.0876.

In the case of A24G A44C, the self-cleavage amounted to 0.0644.

As for A23U C37G, the self-cleavage was determined as 0.438.

In the case of A24U C48U, the self-cleavage turned out to be 0.252.

For the variant A24G A41C, the self-cleavage is 0.743.

On to A23C G69U, for which the self-cleavage came out at 0.297.

As for A23U A49G, the self-cleavage is 0.356.

Regarding A23G C38U, the self-cleavage was 0.43.

A23G C38A: the self-cleavage came to 0.239.

As to A23C G32U, the self-cleavage is 0.15.

Regarding A23C G32C, the self-cleavage is 0.0217.

With A23C G32A, the self-cleavage was 0.102.

With A24U A59G, the self-cleavage was determined as 0.183.

With A24U G69C, the self-cleavage came to 0.271.

With A24G A71C, the self-cleavage was 1.4.

On to A23C C46U, for which the self-cleavage turned out to be 0.0785.

A23C G27U: the self-cleavage amounted to 0.253.

As for A23C A45U, the self-cleavage was 0.207.

For A24C, the self-cleavage stood at 0.894.

In the case of A24U, the self-cleavage stood at 0.868.

With A24G, the self-cleavage came out at 0.87.

Regarding A24G U55A, the self-cleavage came out at 0.272.

Turning to A24G U55C, the self-cleavage stood at 0.196.

On to A23U A43U, for which the self-cleavage came out at 0.123.

Regarding A24G G54C, the self-cleavage stood at 0.458.

As to A24U G56C, the self-cleavage was found to be 0.14.

G25A G34U: the self-cleavage was found to be 1.11.

For G25A G34A, the self-cleavage stood at 0.715.

Turning to A22U U52A, the self-cleavage came to 0.836.

On to A23U A28C, for which the self-cleavage was 0.613.

With A23U A28U, the self-cleavage was 0.674.

Regarding G25A A31C, the self-cleavage turned out to be 0.128.

With A23G U63A, the self-cleavage was found to be 0.113.

On to A24U A39C, for which the self-cleavage came out at 0.5.

With A24U A30G, the self-cleavage came out at 0.164.

For the variant A24C C65G, the self-cleavage turned out to be 0.296.

Take A24C C65A: the self-cleavage was 0.922.

In the case of A24C C65U, the self-cleavage turned out to be 0.402.

As for A24G A36G, the self-cleavage came out at 0.679.

In the case of A24C G40A, the self-cleavage was 0.335.

A24C G40C: the self-cleavage stood at 0.185.

G25A A44U: the self-cleavage was found to be 0.179.

A23C G42A: the self-cleavage was found to be 0.287.

With A23C G42C, the self-cleavage is 0.422.

Turning to A23C G42U, the self-cleavage was 0.348.

A24U C46A: the self-cleavage was found to be 0.11.

Consider A24C A44G, for which the self-cleavage turned out to be 0.104.

On to A24C G69C, for which the self-cleavage was 0.218.

Take A24C G69A: the self-cleavage was 0.484.

As for A24C U70C, the self-cleavage came out at 0.778.

In the case of A24C U70G, the self-cleavage worked out at 0.666.

Take A23G G29U: the self-cleavage was 0.164.

With G25A G27A, the self-cleavage worked out at 0.148.

A24U A41G: the self-cleavage is 0.71.

Consider G25A A61C, for which the self-cleavage amounted to 0.196.

In the case of G25A A41G, the self-cleavage was found to be 0.494.

A24G U60C: the self-cleavage was 0.936.

As to A24G U63A, the self-cleavage turned out to be 0.231.

With A24C C66A, the self-cleavage stood at 0.187.

Take A24C C66G: the self-cleavage was 0.0731.

As for A23C G40A, the self-cleavage was determined as 0.342.

Turning to A23C G40U, the self-cleavage is 0.175.

With A24G A26G, the self-cleavage turned out to be 0.569.

As to A24G A26U, the self-cleavage was 0.661.

For the variant A24G A26C, the self-cleavage turned out to be 0.367.

Take A24C A39G: the self-cleavage came out at 0.28.

For the variant A23C U60C, the self-cleavage was 0.921.

Regarding A23C U60A, the self-cleavage amounted to 0.744.

Consider A24G G51C, for which the self-cleavage turned out to be 0.829.

With A23G U53A, the self-cleavage stood at 0.727.

As for A23G U33A, the self-cleavage was 0.131.

On to A23G U33G, for which the self-cleavage is 0.125.

For A23G G40U, the self-cleavage is 0.278.

Regarding A23G G40A, the self-cleavage was 0.234.

A24U U33C: the self-cleavage worked out at 0.0916.

Regarding A24U U53C, the self-cleavage is 0.885.

For A24U U53A, the self-cleavage was found to be 1.03.

Take A23G C50A: the self-cleavage amounted to 0.218.

Regarding A24C C46G, the self-cleavage is 0.105.

As for A24C C46A, the self-cleavage came to 0.134.

A24C C46U: the self-cleavage stood at 0.142.

For A24C A41G, the self-cleavage is 0.846.

Consider A22U U63G, for which the self-cleavage was 0.203.

In the case of A22U U63C, the self-cleavage amounted to 0.0646.

As to G25A A59C, the self-cleavage was 0.196.

With G25A A59U, the self-cleavage worked out at 0.21.

On to A23C A26U, for which the self-cleavage was found to be 0.499.

As for A23C A26G, the self-cleavage amounted to 1.01.

A23G A47U: the self-cleavage was 0.151.

Regarding A23G A47G, the self-cleavage worked out at 0.171.

As for A23G A47C, the self-cleavage was 0.3.

A24G U67A: the self-cleavage is 0.204.

For the variant A23U G27A, the self-cleavage was found to be 0.394.

With A23G G34A, the self-cleavage worked out at 1.12.

For A23U C50G, the self-cleavage was found to be 0.239.

As to A23U C50A, the self-cleavage turned out to be 0.277.

Regarding A23C A30G, the self-cleavage turned out to be 0.184.

Consider A23C A30U, for which the self-cleavage is 0.118.

Turning to A23C C38G, the self-cleavage worked out at 0.0489.

On to A23C U58A, for which the self-cleavage turned out to be 0.49.

On to A23C U58C, for which the self-cleavage was found to be 0.821.

For the variant A24G A49C, the self-cleavage turned out to be 0.163.

In the case of A24C C50U, the self-cleavage amounted to 0.418.

Consider A24C C50A, for which the self-cleavage was found to be 0.103.

Regarding A24G U70A, the self-cleavage amounted to 0.746.

As for G25A C50G, the self-cleavage is 0.14.

For A24U G57U, the self-cleavage stood at 0.188.

A23U G34C: the self-cleavage was 1.12.

In the case of A24G U52A, the self-cleavage stood at 1.12.

For the variant A23G A44G, the self-cleavage turned out to be 0.126.

With G25A C46U, the self-cleavage came out at 0.116.

Take A24U A47G: the self-cleavage came to 0.164.

For the variant A24U A47C, the self-cleavage was 0.3.

With A23G A61C, the self-cleavage is 0.266.

Consider A23G A61G, for which the self-cleavage was determined as 0.136.

Turning to A24U A71U, the self-cleavage worked out at 0.783.

In the case of A23U U33G, the self-cleavage was 0.158.

On to A24C A36C, for which the self-cleavage is 0.631.

Take A24C C38G: the self-cleavage was determined as 0.186.

For the variant A24C C38U, the self-cleavage amounted to 0.5.

Consider A24C A35U, for which the self-cleavage amounted to 0.938.

Take A23C U70G: the self-cleavage amounted to 0.685.

For the variant A23C U70A, the self-cleavage was found to be 0.872.

Consider A23C A64C, for which the self-cleavage worked out at 0.0802.

Take A23C A64U: the self-cleavage turned out to be 0.118.

As for A24C G51A, the self-cleavage stood at 0.932.

Take A24C G51C: the self-cleavage came to 0.77.

As to A24C G25A, the self-cleavage came to 0.219.

On to A23G A28C, for which the self-cleavage was 0.641.

For the variant G25A C37U, the self-cleavage turned out to be 0.494.
